In the supplement of paper PMC10724198:
± gives the standard deviation of the averaged measurements.

system: Saccharomyces cerevisiae; test: protein stability index of tFT-peptide fusion (C-terminal peptide) (PSI (0-1 scale)); higher = more stable (slower turnover); conditions: genetic background: wild type; temperature: 30 C
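Further: PSI is a weighted mean of sequencing reads over stability bins, variants kept only with over 10 reads, mCherry proximal and sfGFP distal, peptide attached via GGGS linker.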

Sequence	protein stability index
VYTNAVPLSSNA	0.817 ± 0.1
LRSAYGHCLQKI	0.715 ± 0.14
AVRPGEAGCAGL	0.664 ± 0.12
SVLWLSSLRVPL	0.7074 ± 0.0032
AGGGGRLTRSRA	0.691 ± 0.087
PPPRLRSPHGLF	0.718 ± 0.08
QCRSLVGGCCVW	0.693 ± 0.031
WVFSGTWSSVSG	0.671 ± 0.027
GGGGRGMWGIFG	0.676 ± 0.045
KLCGIYMVGGKK	0.65093 ± 0.00038
SLLLPPRPPCPP	0.737 ± 0.024
RPSHSRPITLPT	0.707 ± 0.12
GGHSVRCGGGAL	0.758 ± 0.037
SLASWLCVFSWD	0.673 ± 0.027
SLIPLLPPRSLS	0.594 ± 0.1
SPPPPYPSLFPL	0.677 ± 0.034
VLTGLLFRRPRS	0.604 ± 0.0062
PIWRLVMRCCRS	0.575 ± 0.022
DRPNIGIKPKRA	0.613 ± 0.086
GGWWGRAGENTR	0.729 ± 0.075
SRSAPPPSPGMT	0.746 ± 0.052
VGLGLSVGKKEI	0.651 ± 0.098
TPPACTRIPPAN	0.777 ± 0.12
VLGWRLLPTAGI	0.703 ± 0.062
TPSAPPPTHPYP	0.684 ± 0.036
PFPLSPPPPPLD	0.761 ± 0.045

Sequence	protein stability index
AFVEGMAYLLII	0.524 ± 0.017
PRFGPPQLPAKA	0.754 ± 0.062
VGVFRCLPGQVG	0.677 ± 0.057
RLGGLLCSPLVD	0.705 ± 0.097
GANSILRDIEFL	0.69 ± 0.05
GGAGGVVGGGGG	0.616 ± 0.018
PVSPSIHPPSYP	0.759 ± 0.023
DINHTSKKKIYI	0.663 ± 0.015
IRGIKSRKFTSV	0.753 ± 0.0079
VDFLLRDPPGPS	0.7201 ± 0.0065
AVRSILYRVATR	0.729 ± 0.06
HRYRAFPLASSR	0.618 ± 0.056
RPPPPSPAPTPP	0.723 ± 0.045
NFAFPWTSTHAF	0.699 ± 0.017
VPLTKHENNFNE	0.709 ± 0.018
RIVQQATHVREH	0.787 ± 0.011
GGEVPFRLCRLW	0.6914 ± 0.0019
NPLSSPSLPPSS	0.625 ± 0.057
PPRPPPPPSPPL	0.745 ± 0.027
LFPSSHFSLSLH	0.767 ± 0.033
WCTLNGASLCLH	0.7719 ± 0.0067
PRSPPPSSSTPD	0.688 ± 0.036
AGLTGSREGWRG	0.638 ± 0.041
SINLLFHSFFFL	0.608 ± 0.047
RGSAPLFVPLSP	0.7106 ± 0.0069
GGGRRVCGVLAV	0.619 ± 0.013

Sequence	protein stability index
GIIDGGTISRNK	0.692 ± 0.013
SLWVSLSCFRVV	0.588 ± 0.028
PASRLHSPSSPP	0.703 ± 0.038
VSEKICNCLGKT	0.657 ± 0.088
SAPLVHASSSPQ	0.722 ± 0.042
GISPFYTALSGF	0.754 ± 0.03
PPTPRALFPPLP	0.745 ± 0.049
LCAPPPSLSPFV	0.708 ± 0.025
WLSDSCRMNSEV	0.666 ± 0.035
IAQDLEPACIKG	0.695 ± 0.021
THPPATSPPPYP	0.6631 ± 0.0057
PAHAPSLSPPPF	0.697 ± 0.016
PPPRLPSRPPPP	0.716 ± 0.032
PMPGATDCQRGC	0.615 ± 0.053
GSVNGDTVGTQQ	0.708 ± 0.013
FHPTCAPLPCPP	0.663 ± 0.038
GQVCSWRCVCYL	0.6741 ± 0.0065
RMSHFNTDSVHF	0.761 ± 0.019
GWGVPGPEPREP	0.658 ± 0.064
PSHLHERIRPAR	0.726 ± 0.16
ELGNREGVGYEV	0.781 ± 0.17
GQRTKSHSRGGP	0.648 ± 0.025
PPARPLFPLPRL	0.754 ± 0.077
LGVPKDALKMMS	0.685 ± 0.0078
PPSPRPPPPSPS	0.719 ± 0.1
LLSPAPRSPRRP	0.725 ± 0.019

Sequence	protein stability index
KEGDMWRVSTLD	0.682 ± 0.016
GVCPPAGDAGGV	0.711 ± 0.018
YGRLPNWGASTE	0.714 ± 0.014
VPPLVPLHPPPP	0.709 ± 0.047
DLPATSAETAPK	0.699 ± 0.058
RGGRMGFYLVCI	0.636 ± 0.028
RLFPSPIYLARF	0.676 ± 0.12
ISCGERSRGGGK	0.6122 ± 0.0029
NYYLPLESCTIG	0.664 ± 0.03
LVLPCLLLFPPS	0.711 ± 0.047
PPPPPPTPAPPP	0.711 ± 0.044
NGPAPTFSPAVR	0.685 ± 0.032
VVRQDQPDLKSS	0.691 ± 0.008
GGGWRLIVLGWW	0.585 ± 0.087
KKRDKKKLRRVE	0.672 ± 0.044
HSPPPPFSPFSP	0.667 ± 0.024
LRGEGAGPEDVG	0.67 ± 0.029
LAPPLPMPPPLA	0.682 ± 0.02
GYAGSRRLGLQE	0.641 ± 0.015
LCTCRLSDVRIG	0.6748 ± 0.0033
TIPSSSQVPIGG	0.641 ± 0.021
APPPLPLPPPAP	0.705 ± 0.033
AGLESFFHYSYF	0.7487 ± 0.0002
